Experimental findings from the supplement of paper PMC12636428 are described below.

Bounds are passed on as bounds.

This series concerns Saccharomyces cerevisiae. Description: transcriptional activation domain activity (GFP:mCherry ratio, weighted mean of sorted bins, harmonized to initial dataset scale) (arbitrary fluorescence ratio units); higher = stronger transcriptional activation. The settings on record: beta-estradiol 1 µM; induction time 4 h. In short, it runs like this:
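After a 1:5 dilution into SC with 1 uM beta-estradiol and 4 hours at 30 °C, yeast diploids carrying a GFP reporter and URA3-integrated barcoded tiles were sorted into 8 bins by GFP:mCherry ratio. The tiles were fused to an estradiol-inducible synthetic transcription factor. Barcodes were sequenced, tiles below 50 reads were discarded, and activation activity was taken as the read-weighted mean of bin median fluorescence, averaged across barcodes and linearly mapped onto the initial dataset scale.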
As for “MAPCIPVMYLSVSSTSFLFLSFFILGWWILFSFTIFPATNSFLCFWAPFFFSH”, the “transcriptional activation domain activity” value came to 46100.
As to “IGLQMASFVLGGFVYFGLSFQSSNYVVLLYYEFAALSQNVYLTVAIIWRLLIF”, the “transcriptional activation domain activity” value was 72300.
For “TPGGSSGGTGAAVASSFSVFGTGTDTVNSLRSPASANSLFSCRPTRGLITRNG”, the “transcriptional activation domain activity” value came to 58000.
For “DQPLNEILGFLLSWLLMFDHFNEITFKLKQEYTTQLKDGDLISLLLPVLFNIL” the value was 41100; for “SGDADEDGNGHGTHCSGTVAGKKYGVAKKASVYAVKVLRSNGSGSMSDVVKGV”, 45000; for “FWVWMMTSPAFPLKLFIPLFHLTILLIPFTSQFFTPALPITSWLICFFSSKFI”, 49200.
Consider “EPEQVEAVVEVEEKQEEVKPVEEEIKVEQPVVEQQQEEPTPVVSQVPASTPLP”, for which the “transcriptional activation domain activity” value was less than 6570.
As to “SVTSTEELEITVETLRELAAHPAVIKGKQCRELRGAVHEFRQACTTGVNAAGT”, the “transcriptional activation domain activity” value is 53600.
To “PLLFLLNRLPIHPPLLIVPVLLWFYCRLTIYSILFWLNNLMVQKLSLLIMSIF” belongs 34500.
To “LNILTSVWAVPVVITLIQALLVMRVCMLFCFNLRVTLCLWALLFASATVSVVL” belongs 51200; to “YPKALPFYGKILGYMTSIYDTIARLAFLKTLQPQGPLDYMLWLVIMTATRIFY”, 53800; to “GASPEESNSGNSRAGASRARKGSKVIDENMVEDALLGLQITHGCLVHHTASVQ”, 44800.
As for “FIVHTAELHLFRKQYVGQLYRSQKLLGLLARRPHIARLVTRFGMHAMSAPLFY”, the “transcriptional activation domain activity” value amounted to 57100.
To “AMLMSLFVSVFCVYGVFIHVAASALQYQIVFFSPCIYMMLICGLSFLCCESPR” belongs 75700; to “FNNDGWDTSLPIDFDFDEFNTETTDFDDFLKLLGDNSPSKEQKSLSYSPTATG”, 162000; to “EDEEETAAARSTSKRTRRGRVLDDSDEEDDEAGTVSPAKAATGAESEGEAGAA”, 30000.
To “GRKPAAKPTPRNSSTTARGRKAKSEPESEDDKPLAKKGGAAATKQTKKPAVKK” belongs 22300; to “WLAHSKKKTCDVCKHPYSFTKVYATDMPTRLPPVLLLRRVAQQSFFAMLFAVR”, 48100.
For “SFLNDAMSEIHTFGDFNGELDSTFLEFSGTEIKEPNNFITENTNAIETAAASM” the value was 113000; for “MTPRAQDSSSDDKEDKKDTDRAAIRAAQNRKAQRLYRQRKEARVRELEATVAK”, 78900.
With “EGEAPKAEEEEEKDAAPDGEGEQPAEADPEEEERQRRAAIAARMARLGGARLG”, the “transcriptional activation domain activity” value came out at 14200.
Turning to “MRDNQYPPYLLSVVHFTCQPPFGVRNLHSPIFILFQYVPHVLLIHFSSFVIFF”, the “transcriptional activation domain activity” value amounted to 64300.
For “TFFLMRDIFIMEFLAHCDLLTIFVLAQTGEYARDLVKAFFSCNLRLLVVIFLG” the value was 47700; for “WRLYMAFRTLKGKLLPCLIEANGLDLFISTFAAIVERVAEVSNLRLTSKLYQA”, 44900; for “KEEEQKELDRMAREEKKVWGDALRLGRTSWSESVMVWSHVMALRVFVETVLRY”, 62900.
To “LYFLRPEVLPDRYAFTIPAISFLGTNDYPVLVPDLFLLLTSSFWSPTLLWFFT” belongs 55600.
For “GLRLIYVVNHGAWGKGPPLATIWVYVIVQLNLLPAVLSLVVIAGFVQYLNLKI” the value was 77200; for “MLFSLYLFFYFLFFVCDGLPYFWFYKHTRFSVNYVSSSPPFCWSLFFLFFYFF”, 62000.
With “KDRKEKAEEKSGEEDRGKREDGAAEGEEREEVKRSAARKPKTVPAAASKKRPK”, the “transcriptional activation domain activity” value was 34600.
To “AYSITLPICSSPILLLFIQSLLFLLPLFSITLSPSFSFILYLLHLFSLLLLCL” belongs 30200; to “VYIGACWGHWAQLNVFLIPGLVVWFIDRGIRFARTALLHYNFLPSGHMGFRAA”, 77700; to “MRAVDIPSLAFNAVGVSNHGIQQMPVAEFATVMKSLVTILLKSMPLDKEKRYQ”, 38900.
To “GHDGHGKGHGHGKGGHGRYARGEEAELEERGYGHGHGGHGKGGHGRYAREEEA” belongs 21100.
To “EEDAGATSEPASTPKLKPETKPKPKAAPKPKPKAEETDSSAKPKAKPKARASS” belongs 33000; to “AVLWNPCICFKSPLVFRFCLSVLLAYLSLPFIPFVFLYYCFLFFVLWFIHSSY”, 31700; to “MPFYMPSKGLAIKDFVGQIALIIKVYVNPITLVSISYHYYMFFLSLNCLWLFL”, 65100.
For the sequence “LCLERLFPPLMREIFCELGIASQVFQRIVFTAIYRRICGTGPHLAHLEAKALE”, the “transcriptional activation domain activity” value is 30100.
Regarding “LTPFSPPHFPLFLPSILFSFPPPLSSHFLLFPYALSPLLLLLFPPLCSSQFTP”, the “transcriptional activation domain activity” value came to 45700.
Turning to “LTDWNVVSNKPITGPADPNEDVYIGRSETAMWMRVVSSWVCMLLYSWSLLAPV”, the “transcriptional activation domain activity” value is 68000.
“PLLACQVAYGFLVVFFSYSLIEEQVGCVIYYEHLVMLCWLVIIMPPNALLSTV”: the “transcriptional activation domain activity” value was 58700.
Consider “MVICFHSLFLQLTTCVLDLYLHYGFLVLFLFLFFIFFPASYFSAYFFFFFIFC”, for which the “transcriptional activation domain activity” value came out at 35900.
To “FLCIFSPFSRMISCLVYRSLFCSSYITSINLIVSVSKVVRRFIIRIFPLLFTI” belongs 51400; to “SHLEQMLWRICSLVIICAPMYLALSGKVFLIFSNSIGQLYILLCIRGPFLLYI”, 69600; to “MCINMYFWKVFFMWTLIFFGLSYIPLSFPGMSYFCLLQHKVFLIILGNHFLRF”, 56800.
For “TLTLLLRERGYELFLLVHFIFVLYVNFLSCLSVRSPLCIVYYGAWPSMIVWGI” the value was 64600; for “MLYIIMKINLFMKVIMLFLVKLIVHYLMILLSLVLLLILLSSFIYICYILVLF”, 37800.
To “KEEETKPEEAAATEATPEATTEPAAEGAEAPKEEAKTDAAAETKKEDRPKSPG” belongs 20500; to “EGDDEAPVQPKGRPRKSKAAAAESADEEPRPKAVRSRPSRARKSKPVASDSDV”, less than 6570; to “LREVYLLSLFYRIKIRFLEAGFNRLKNLIKLDTRYYIVSFTYIVLELLKAKML”, 63300.
In the case of “MAALGGGKYFVCMLTQIVVNFCFLLSVPFSSPPLLLPCYLIIRYSFSFFLFCL”, the “transcriptional activation domain activity” value was determined as 64700.
Take “MLTEFCFNMLGRHDGKGLISNAVLNAWLKQLSDYFRARFTIWCRINILMDLYR”: the “transcriptional activation domain activity” value was 42100.
Turning to “GEAQARANADAQADAGEVPEKGKKKRRHKEGGGDGEGKKKKRKEKQTEPEEGA”, the “transcriptional activation domain activity” value came to 24700.
To “SIMHALRQFCTEMRATQFQDCRLRTVQLLLRLLPSANLSLFVYLLAFLSQIVQ” belongs 36200.
For “LWPLPVITRYIIGISLLVSMLNFMGLLHLKCSSPSYVIHRLEIANLLMSPFLF” the value was 46200; for “KQAAEEGDRPKQGGKESGEKENGKAEGSQAREKDRPADGEGKSSDEAGKAKDE”, 12500.
For “IRLLFVWIVCTRIVLASRSACGRCYRSYLAMRSRSGWRWVSRRTAAVLVLRWC” the value was 61500; for “LSLPPPLPFFPPLFPFFFLFFFYLLISFFFSFLFCGEMDLGWALQVAAATYSH”, 36700.
“MASVVCCTELWCLFGLDVCFFPFSLFALPLVLSPSLFPLSSLSFIIFLFFPVS”: the “transcriptional activation domain activity” value turned out to be 54700.
As for “LLLRSFKTFQLWTGDQCLEYLGDKFRVVLGLPDDWTNKDLGYWLLSKLVLVHL”, the “transcriptional activation domain activity” value is 73000.
With “LFASMIPSMRDLIVIVLTLPNHATVIELQHYALEIAEQLTRFWFLRAENPLYR”, the “transcriptional activation domain activity” value was 62600.
For “LMFLVLIVSNLRLMIENFRKYGVLICIRCHDYRRQDVVYGSILYFLVPCHLFV” the value was 73100.
In the case of “TLGFVVDRYFRVKNFVPEPFWTIKVMHHKDGKKVNFNWARHRLFDRMSVIILY”, the “transcriptional activation domain activity” value was 64300.
Take “DSEADSEDDDNGAESDKKMPVADKSEHQTGILSKLYKLNVYGEGSFFKPHKDT”: the “transcriptional activation domain activity” value was found to be 45700.
For the sequence “IHEPDQPLFSSFFSFFFVSFLSLIPPPLFPSSFPFLLFLPFLPPSLSLLSLIF”, the “transcriptional activation domain activity” value worked out at 35500.
To “VQRYLCQYQPQITLGFMIFTDMIFFFLDTYLCYVLLNTIFSIARSFYIGSSIW” belongs 56700.
To “PRQMCRLYRAGYGLFYNQFCAYIDIAFCMMLCQWNLDILETLRYRLEFGRYLA” belongs 71100; to “EAPVEAPIEVPVEAPVEAPVEAEKPAEEIETPAEAVVEKPAEETEKPAEAVVE”, 31900.
On to “LLLLYGLTWAFNLIACMLTSTNNGNMVSCILTNFNCIIVYTITKIILYLYFVE”, for which the “transcriptional activation domain activity” value worked out at 43200.
For “MHLLTFTIPSYRAVCKVFPFLFWLSLFLTHWFVYSFSFLQAFFSFCFTWAWCV” the value was 69900; for “VIMCTALGIKSVKFEFANLCLVSIEHIFALFFYPMAVIICPSFLLHIATFFYI”, 83900; for “GVLFCLSCLSFINLSFFLGGGCLFSFSFLFPALVWRYAFFLLVLDYRRILNIP”, 36900.
With “KIRTNALLSSFLVSLTEGAANGTRFASPEGAVTSALVRIFLRLIWLWTATGRR”, the “transcriptional activation domain activity” value worked out at 57200.
For “ASASREKGKGKGREEEKKEGESKGKEKGRKEEEKGGEEKGGEEEDDEDEDEDE” the value was 30900; for “KKEKSPSEDEAEKPKSPKSPFAKLRATVKGKSPKTEKPAEEPKAEAAPEAKTE”, 24100.
